From patent publication EP4442276A1 (INSTITUT PASTEUR, dated 2024)

Key:
Assay in all cases: ELISA on coated recombinant spike trimer
[1] = target: T1, Trimeric OC43-CoV spike ectodomain (tri-S) (OC43-CoV, UniProt P36334 14-1297)
T1 construct: extracellular domain
T1 sequence: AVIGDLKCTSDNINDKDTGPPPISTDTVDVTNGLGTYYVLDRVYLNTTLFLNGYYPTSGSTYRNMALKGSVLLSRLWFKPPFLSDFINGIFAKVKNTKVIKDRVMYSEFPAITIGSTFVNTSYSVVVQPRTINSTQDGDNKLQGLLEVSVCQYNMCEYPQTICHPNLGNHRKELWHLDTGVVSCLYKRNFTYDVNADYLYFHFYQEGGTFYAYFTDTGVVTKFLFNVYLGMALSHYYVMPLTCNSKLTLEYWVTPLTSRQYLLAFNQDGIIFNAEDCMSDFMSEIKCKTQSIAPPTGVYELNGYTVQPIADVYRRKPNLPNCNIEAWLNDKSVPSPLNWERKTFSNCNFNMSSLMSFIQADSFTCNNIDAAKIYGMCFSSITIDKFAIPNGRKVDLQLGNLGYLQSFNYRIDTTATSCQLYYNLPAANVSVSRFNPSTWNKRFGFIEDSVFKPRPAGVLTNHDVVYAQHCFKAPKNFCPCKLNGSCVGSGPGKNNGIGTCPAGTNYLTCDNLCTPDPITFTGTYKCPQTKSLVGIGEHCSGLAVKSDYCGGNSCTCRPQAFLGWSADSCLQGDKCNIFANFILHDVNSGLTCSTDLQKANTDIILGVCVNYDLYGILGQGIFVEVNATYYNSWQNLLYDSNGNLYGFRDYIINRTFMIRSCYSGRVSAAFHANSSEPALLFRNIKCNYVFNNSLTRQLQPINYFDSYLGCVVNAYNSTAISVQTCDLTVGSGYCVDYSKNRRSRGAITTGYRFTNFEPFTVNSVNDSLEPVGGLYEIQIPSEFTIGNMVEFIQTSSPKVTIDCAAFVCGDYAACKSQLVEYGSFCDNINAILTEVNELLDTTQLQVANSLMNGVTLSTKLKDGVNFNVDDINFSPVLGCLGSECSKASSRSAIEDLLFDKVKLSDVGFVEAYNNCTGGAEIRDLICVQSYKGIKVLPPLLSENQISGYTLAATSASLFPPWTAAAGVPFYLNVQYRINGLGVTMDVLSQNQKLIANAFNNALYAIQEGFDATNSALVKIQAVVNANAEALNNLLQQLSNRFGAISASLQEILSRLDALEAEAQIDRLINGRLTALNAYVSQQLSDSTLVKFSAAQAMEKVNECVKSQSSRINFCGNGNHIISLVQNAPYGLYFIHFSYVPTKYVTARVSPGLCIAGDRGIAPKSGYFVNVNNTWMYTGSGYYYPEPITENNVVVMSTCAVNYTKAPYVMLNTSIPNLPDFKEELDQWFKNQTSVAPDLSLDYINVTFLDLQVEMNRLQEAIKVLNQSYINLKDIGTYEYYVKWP

[2] = target: T2, Trimeric 229E-CoV spike ectodomain (tri-S) (229E-CoV, UniProt P15423 16-1115)
T2 construct: extracellular domain
T2 sequence: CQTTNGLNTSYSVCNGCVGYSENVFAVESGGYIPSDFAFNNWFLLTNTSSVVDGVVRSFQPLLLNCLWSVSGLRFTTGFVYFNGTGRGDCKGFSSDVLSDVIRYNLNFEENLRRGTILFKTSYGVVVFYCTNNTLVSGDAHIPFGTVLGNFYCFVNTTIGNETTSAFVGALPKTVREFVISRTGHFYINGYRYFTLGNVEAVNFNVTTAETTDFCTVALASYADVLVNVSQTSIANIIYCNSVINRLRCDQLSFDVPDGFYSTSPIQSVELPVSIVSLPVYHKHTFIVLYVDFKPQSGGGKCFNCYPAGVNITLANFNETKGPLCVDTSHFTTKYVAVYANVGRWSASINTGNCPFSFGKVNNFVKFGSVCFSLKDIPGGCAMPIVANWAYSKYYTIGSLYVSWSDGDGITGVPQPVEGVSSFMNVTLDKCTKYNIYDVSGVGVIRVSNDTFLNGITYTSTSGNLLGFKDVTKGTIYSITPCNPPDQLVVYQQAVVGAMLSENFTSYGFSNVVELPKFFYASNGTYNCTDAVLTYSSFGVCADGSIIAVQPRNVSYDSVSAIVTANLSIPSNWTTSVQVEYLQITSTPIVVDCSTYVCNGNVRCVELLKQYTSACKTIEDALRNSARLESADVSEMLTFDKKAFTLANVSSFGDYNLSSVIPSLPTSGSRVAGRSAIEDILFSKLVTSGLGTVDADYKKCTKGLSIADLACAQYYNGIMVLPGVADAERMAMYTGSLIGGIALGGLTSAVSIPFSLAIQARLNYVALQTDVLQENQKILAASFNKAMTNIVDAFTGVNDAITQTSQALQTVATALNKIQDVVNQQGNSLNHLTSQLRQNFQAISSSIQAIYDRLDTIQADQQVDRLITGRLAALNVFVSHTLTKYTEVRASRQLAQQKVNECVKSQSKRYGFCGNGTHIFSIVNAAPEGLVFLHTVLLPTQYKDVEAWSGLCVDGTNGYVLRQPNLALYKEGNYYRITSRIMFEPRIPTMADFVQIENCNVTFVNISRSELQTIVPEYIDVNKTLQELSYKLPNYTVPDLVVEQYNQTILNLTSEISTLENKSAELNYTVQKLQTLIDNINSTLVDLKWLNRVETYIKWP

[3] = target: T3, Trimeric MERS-CoV spike ectodomain (tri-S) (MERS-CoV, UniProt K9N5Q8 18-1296)
T3 construct: extracellular domain
T3 sequence: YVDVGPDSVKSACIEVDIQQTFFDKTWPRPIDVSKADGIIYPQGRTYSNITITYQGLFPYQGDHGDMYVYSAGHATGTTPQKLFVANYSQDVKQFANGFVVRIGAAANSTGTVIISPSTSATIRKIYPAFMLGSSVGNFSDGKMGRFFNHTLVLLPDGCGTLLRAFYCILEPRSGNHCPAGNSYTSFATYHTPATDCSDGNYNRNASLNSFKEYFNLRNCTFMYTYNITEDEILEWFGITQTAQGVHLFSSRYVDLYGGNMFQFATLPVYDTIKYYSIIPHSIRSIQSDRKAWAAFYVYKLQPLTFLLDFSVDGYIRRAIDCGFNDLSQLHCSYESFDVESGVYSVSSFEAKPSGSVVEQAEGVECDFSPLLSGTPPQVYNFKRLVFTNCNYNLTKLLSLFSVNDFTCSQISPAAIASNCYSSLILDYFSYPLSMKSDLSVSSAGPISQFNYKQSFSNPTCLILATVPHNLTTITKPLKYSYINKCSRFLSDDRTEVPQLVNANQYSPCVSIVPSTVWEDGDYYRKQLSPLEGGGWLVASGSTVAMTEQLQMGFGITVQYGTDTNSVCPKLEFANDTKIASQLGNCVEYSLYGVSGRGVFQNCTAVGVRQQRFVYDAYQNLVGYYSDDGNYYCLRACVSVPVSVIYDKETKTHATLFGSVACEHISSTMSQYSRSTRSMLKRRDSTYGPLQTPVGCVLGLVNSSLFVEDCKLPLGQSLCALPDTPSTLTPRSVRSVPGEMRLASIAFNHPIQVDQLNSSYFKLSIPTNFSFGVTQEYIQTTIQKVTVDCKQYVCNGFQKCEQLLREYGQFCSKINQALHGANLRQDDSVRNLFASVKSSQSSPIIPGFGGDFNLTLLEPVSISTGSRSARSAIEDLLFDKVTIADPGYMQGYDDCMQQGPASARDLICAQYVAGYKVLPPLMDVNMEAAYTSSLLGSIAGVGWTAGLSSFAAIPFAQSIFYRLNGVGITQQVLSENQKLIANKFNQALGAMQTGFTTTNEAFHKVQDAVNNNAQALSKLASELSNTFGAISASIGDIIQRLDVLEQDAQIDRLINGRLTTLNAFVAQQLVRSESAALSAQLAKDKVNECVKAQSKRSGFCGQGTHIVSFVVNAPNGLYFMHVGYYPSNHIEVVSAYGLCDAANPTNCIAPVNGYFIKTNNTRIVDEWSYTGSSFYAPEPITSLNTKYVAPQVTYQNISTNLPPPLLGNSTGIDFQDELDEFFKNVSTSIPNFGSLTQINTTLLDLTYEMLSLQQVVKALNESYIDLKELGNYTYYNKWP

[4] = target: T4, Trimeric HKU1-CoV spike ectodomain (tri-S) (HKU1-CoV, UniProt Q5MQD0 13-1300)
T4 construct: extracellular domain
T4 sequence: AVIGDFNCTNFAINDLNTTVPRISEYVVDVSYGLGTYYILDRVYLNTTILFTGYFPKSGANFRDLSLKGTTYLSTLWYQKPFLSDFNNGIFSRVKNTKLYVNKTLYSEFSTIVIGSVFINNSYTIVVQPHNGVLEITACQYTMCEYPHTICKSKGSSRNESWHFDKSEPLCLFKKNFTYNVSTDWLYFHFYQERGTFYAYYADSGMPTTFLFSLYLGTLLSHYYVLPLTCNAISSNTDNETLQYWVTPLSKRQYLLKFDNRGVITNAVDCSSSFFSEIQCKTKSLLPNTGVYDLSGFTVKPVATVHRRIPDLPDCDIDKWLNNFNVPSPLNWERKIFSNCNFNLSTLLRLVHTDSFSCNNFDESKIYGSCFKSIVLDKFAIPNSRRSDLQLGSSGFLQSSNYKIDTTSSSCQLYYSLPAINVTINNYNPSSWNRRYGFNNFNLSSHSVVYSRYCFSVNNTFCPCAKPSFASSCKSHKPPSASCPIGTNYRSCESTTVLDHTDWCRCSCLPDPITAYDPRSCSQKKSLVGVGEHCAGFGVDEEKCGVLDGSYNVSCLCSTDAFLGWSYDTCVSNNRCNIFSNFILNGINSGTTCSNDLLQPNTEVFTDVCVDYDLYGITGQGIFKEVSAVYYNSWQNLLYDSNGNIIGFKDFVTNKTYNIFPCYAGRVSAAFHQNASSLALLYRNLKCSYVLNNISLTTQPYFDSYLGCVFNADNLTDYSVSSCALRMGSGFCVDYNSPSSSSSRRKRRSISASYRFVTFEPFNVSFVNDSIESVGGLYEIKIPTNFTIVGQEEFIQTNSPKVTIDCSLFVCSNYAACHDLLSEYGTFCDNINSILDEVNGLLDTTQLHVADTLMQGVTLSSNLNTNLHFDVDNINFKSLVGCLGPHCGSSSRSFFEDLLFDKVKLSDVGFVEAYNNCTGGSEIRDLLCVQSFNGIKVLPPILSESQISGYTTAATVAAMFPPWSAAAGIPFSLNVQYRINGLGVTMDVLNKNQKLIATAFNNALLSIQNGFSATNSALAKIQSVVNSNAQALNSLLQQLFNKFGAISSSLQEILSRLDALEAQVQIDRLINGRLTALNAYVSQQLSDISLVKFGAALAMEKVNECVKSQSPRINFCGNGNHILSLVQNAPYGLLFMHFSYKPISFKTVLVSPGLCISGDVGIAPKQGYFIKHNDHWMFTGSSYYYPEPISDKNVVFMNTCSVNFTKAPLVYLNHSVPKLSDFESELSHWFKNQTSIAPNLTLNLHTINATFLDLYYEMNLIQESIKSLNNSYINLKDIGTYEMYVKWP

Measured: binding result

B1: Cv2.3132 IgG antibody (antibody, V domains shown)
VH: EVQLVESGGGLVKPGGSLRLSCAASGFTFSDYYMSWIRQAPGKGLEWVSYISSSGSVQYYADSVKGRFTISRDNAKNSLYLQMNSLRAEDTAVYYCARYYYDSSGYWKRLDYWGQGTLVTVSS
VL: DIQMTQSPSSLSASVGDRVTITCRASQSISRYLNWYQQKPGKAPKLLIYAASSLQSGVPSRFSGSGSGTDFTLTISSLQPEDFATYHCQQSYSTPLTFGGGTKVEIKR
notes: also called anti-HR2 antibody Cv2.3132
no binding: [1] | [2] | [3] | [4]
